The target in experiment [1] is T1, matrix metalloproteinase-2 (MMP-2), recombinant human (human, UniProt P08253 30-660).
T1 sequence (looked up): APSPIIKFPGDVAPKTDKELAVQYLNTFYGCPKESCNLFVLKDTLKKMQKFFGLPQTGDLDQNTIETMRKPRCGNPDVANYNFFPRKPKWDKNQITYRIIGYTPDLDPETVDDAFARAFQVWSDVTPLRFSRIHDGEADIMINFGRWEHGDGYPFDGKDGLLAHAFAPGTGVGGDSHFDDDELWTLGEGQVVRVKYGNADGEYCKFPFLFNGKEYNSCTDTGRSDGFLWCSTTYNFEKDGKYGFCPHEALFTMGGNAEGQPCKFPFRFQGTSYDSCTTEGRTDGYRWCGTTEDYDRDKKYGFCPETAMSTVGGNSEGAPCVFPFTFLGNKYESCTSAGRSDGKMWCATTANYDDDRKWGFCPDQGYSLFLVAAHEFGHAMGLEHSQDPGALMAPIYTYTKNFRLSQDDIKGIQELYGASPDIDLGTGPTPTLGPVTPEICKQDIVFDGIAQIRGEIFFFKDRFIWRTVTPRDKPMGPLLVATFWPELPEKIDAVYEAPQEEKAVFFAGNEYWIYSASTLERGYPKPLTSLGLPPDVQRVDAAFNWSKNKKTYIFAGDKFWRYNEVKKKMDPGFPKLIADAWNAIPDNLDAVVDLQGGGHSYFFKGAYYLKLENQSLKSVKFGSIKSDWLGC
The experiment in a line: SPR.

The target of experiment [2] is T2, bone morphogenetic protein-1 (BMP-1), recombinant human (human, UniProt P13497-2 121-730).
T2 sequence (looked up): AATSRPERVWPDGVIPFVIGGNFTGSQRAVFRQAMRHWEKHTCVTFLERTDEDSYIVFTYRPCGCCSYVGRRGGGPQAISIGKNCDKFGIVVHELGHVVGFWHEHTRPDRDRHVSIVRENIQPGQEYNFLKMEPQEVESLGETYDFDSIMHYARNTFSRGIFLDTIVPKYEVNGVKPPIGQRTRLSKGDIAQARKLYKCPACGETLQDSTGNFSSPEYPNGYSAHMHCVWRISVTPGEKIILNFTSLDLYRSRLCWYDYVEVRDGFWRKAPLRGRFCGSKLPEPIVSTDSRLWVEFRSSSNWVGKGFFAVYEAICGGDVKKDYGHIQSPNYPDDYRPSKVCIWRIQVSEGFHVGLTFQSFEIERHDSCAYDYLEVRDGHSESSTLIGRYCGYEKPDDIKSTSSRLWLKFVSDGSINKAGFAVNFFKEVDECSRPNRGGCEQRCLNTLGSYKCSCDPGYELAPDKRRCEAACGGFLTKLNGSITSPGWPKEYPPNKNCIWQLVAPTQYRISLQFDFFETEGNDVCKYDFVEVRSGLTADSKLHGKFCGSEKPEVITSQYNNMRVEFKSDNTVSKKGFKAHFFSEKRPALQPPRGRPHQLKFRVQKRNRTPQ
The experiment can be described thus: SPR. A general note: Surface plasmon resonance follows binding to a sensor surface in real time, without labels.

Some results are limits rather than exact numbers.

B1: NTRshort (NTRs), short form of the netrin-like (NTR) domain of human PCPE-1 starting at Cys318 (domain or fragment, UniProt Q15113 318-449, looked up)
chain: CPKQCRRTGTLQSNFCASSLVVTATVKSMVREPGEGLAVTVSLIGAYKTGGLDLPSPPTGASLKFYVPCKQCPPMKKGVSYLLMGQVEENRGPVLPPESFVVLHRPNQDQILTNLSKRKCPSQPVRAAASQD
Consider B1, for which, in experiment [1], the dissociation constant (Kd) is no less than 1000 nM.

B2: procollagen C-proteinase enhancer-1 (PCPE-1), full-length, recombinant human (natural protein, UniProt Q15113 26-449, looked up)
chain: QTPNYTRPVFLCGGDVKGESGYVASEGFPNLYPPNKECIWTITVPEGQTVSLSFRVFDLELHPACRYDALEVFAGSGTSGQRLGRFCGTFRPAPLVAPGNQVTLRMTTDEGTGGRGFLLWYSGRATSGTEHQFCGGRLEKAQGTLTTPNWPESDYPPGISCSWHIIAPPDQVIALTFEKFDLEPDTYCRYDSVSVFNGAVSDDSRRLGKFCGDAVPGSISSEGNELLVQFVSDLSVTADGFSASYKTLPRGTAKEGQGPGPKRGTEPKVKLPPKSQPPEKTEESPSAPDAPTCPKQCRRTGTLQSNFCASSLVVTATVKSMVREPGEGLAVTVSLIGAYKTGGLDLPSPPTGASLKFYVPCKQCPPMKKGVSYLLMGQVEENRGPVLPPESFVVLHRPNQDQILTNLSKRKCPSQPVRAAASQD
For B2, in experiment [2], the “KD of site 1 (two binding sites model)” value was found to be 129 ± 19 nM and the “KD of site 2 (two binding sites model)” value is 5.2 ± 0.5 µM.

For orientation: Kd means the concentration at which binding is half-saturated.

(Values after publication PMC2871463 (The Journal of Biological Chemistry, 2010).)
